Read-outs that look alike come from different tables or passages of the source.

Common to all, as to assay: crystal structure
Assay [1] has as its target His-ICP0 (HSV-1 strain KOS infected cell protein 0, residues A636-Q776) (herpes simplex virus 1 (HSV-1), strain KOS).
The target is the same in assay [2]. This is another data set of the same source.
The target of assay [3] is proteolytic fragment of his-ICP0 391-776 (HSV-1 strain KOS) that crystallised (herpes simplex virus 1 (HSV-1), strain KOS).

As to “His-ICP0 (HSV-1 strain KOS infected cell protein 0, residues A636-Q776) (domain or fragment)”, the stoichiometry N turned out to be 2 in assay [1] and 4 in assay [2].
Take “proteolytic fragment of his-ICP0 391-776 (HSV-1 strain KOS) that crystallised (domain or fragment)”: the stoichiometry N in assay [3] amounted to 2.

The values above are taken from publication PMC10827139.
